Read-outs that look alike come from different tables or passages of the source.
How the values were obtained:
spleen cells = assay: Secretion of interferon-gamma by spleen cells (ELISA); format: cell-based, Balb/c mice; conditions: for Secretion of Interferon-gamma, Con A 1 μg/ml: Experiment 1
Description: For proliferation assays and in vitro cytokine analysis, spleen cells were obtained from mice at the indicated time points. Single cell suspensions were prepared from pools of 3-5 mice as indicated in Results. For proliferation and cytokine analysis, cells were suspended in round bottom 96 well culture plates precoated overnight with HIV peptide antigens, control proteins, or RPMI-10 only. Spleen cells were added at 5×10^5 cells/well using culture medium having 2× supplements. Cell culture supernatants were harvested from triplicate wells for cytokine analysis three or six days after culture initiation. Immediately after supernatant harvest, cultures were pulsed with ^3H-thymidine for 18-24 hours, and harvested to quantify cell proliferation.
For cytokine analysis, cell culture supernatants were added to wells coated with BVD6-11B11 (for anti-IL4), or R4-6A2 (for interferon-gamma). After incubation and washing, wells were developed using biotin-labeled BVD6-24G2 (for IL4) or XMG 1.2 (for interferon-gamma). The concentration of cytokines was determined using a standard curve prepared from recombinant murine interferon-gamma or interleukin-4. All cytokine reagents were purchased from Pharmingen (San Diego, Calif.).
Interferon-gamma secreted into culture by spleen cells stimulated with 25 μg T1SP10MN(A) (−Cys). Spleen cells were harvested from pools of five Balb/c female mice and cultured with the indicated antigenic stimuli (the same as in Example 6) for either three or six days. Interferon-gamma levels were determined by ELISA, and compared to a standard having a known concentration. Blank wells indicate that the assay could not detect Interferon-gamma from those culture conditions. The lower limit of detection sensitivity was 4 picograms/ml.
Cells were cultured for a total of 96 hours. Cell culture supernatants were analyzed for interferon-gamma by ELISA. All values were after subtraction from those determined from supernatants of cells stimulated with 10 μg of lysozyme. Results which were below the limit of detection, after subtraction from stimulation induced with lysozyme are indicated as “bd”. The adjuvants were the same as those in Example 12.

T1SP10MN(A) (−Cys) [1] = test system: T1SP10MN(A) (−Cys)
Description: Animals were bled prior to initial immunization, and at indicated time points. Serum was analyzed from individual mice, or as pools from mice within groups. Vaginal lavage was performed on euthanized mice to assess antibody levels. This was accomplished by instillation of 75:1 RPMI-10 into the vaginal vault of female mice using a 200:1 pipette. The vault was washed by repeated delivery and removal of fluid, which was then added to 10:1 of FBS. Vaginal lavage were analyzed as pools.
For analysis of HIV peptide-specific antibody and subclass distribution, peptide was suspended in either carbonate buffer (15 mM Na2CO3, 35 mM NaHCO3, pH 9.6), or PBS, at a concentration of 1 μg/ml and plated to 96 well microtiter plates (Nunc) in a volume of 100:1. After overnight incubation at 37° C., plates were washed, and blocked (0.1% gelatin/PBS) at room temperature for 2-4 hours. ELISA plates were washed with wash buffer (PBS, 0.1% Tween™20) before addition of serially diluted serum (PBS, 0.1% gelatin, 0.05% Tween™20, 0.02% sodium azide). After a four hour incubation, wells were washed and appropriate dilutions of biotinylated anti-isotype/subclass antibodies were added for incubation at 4° C. overnight. Wells were washed and incubated with strepavidin-conjugated horseradish peroxidase. After incubation, wells were washed, and developed with ABTS. Wells were read at 405 nm. Titers were standardized using control sera.
Vaginal IgG and IgA anti-peptide antibody titers were measured from lavage obtained 2 weeks after final immunization. Groups of 5 Balb/c female mice were immunized with 25 μg T1SP10MN(A) (−Cys) and the indicated adjuvant formulations on days 0, 28, and 42. Vaginal antibody titers were determined from pool d lavage fluid.
HIV peptide-specific vaginal lavage endpoint reciprocal endpoint IgG and IgA antibody titers were measured from pooled serum (n=5 Balb/c) 15 days after secondary immunization. […] Aqueous MPL™ was delivered at 50 μg per dose. Recombinant murine IL-12 was delivered at 40 ng/mouse. Recombinant murine GM-CSF was delivered at 10 μg/mouse.
Vaginal IgG and IgA anti-peptide antibody titers were measured from lavage 41 days after initial immunization, 13 days after secondary immunization.

T1SP10MN(A) (−Cys) [2] = test system: T1SP10MN(A) (−Cys); remark: listed apart in the source
Description: Mice were immunized subcutaneously in the rump, in a total volume of 0.2 ml equally divided on each side of the tail. Immunizations were administered at varying time intervals, as indicated below. Antigen and cytokines were diluted in phosphate buffered saline to the appropriate concentrations and formulated with adjuvants less than 16 hours prior to immunization, under sterile conditions. Vaccines were mixed by gentle agitation, and stored at 4° C. Formulations were mixed by vortex immediately prior to immunization.
Reciprocal anti-HIV peptide-specific IgG endpoint titers were measured from pooled serum (n=5 Balb/c) at the indicated time points after initial immunization. Mice were immunized subcutaneously in the rump with 25 μg of T1SP10MN(A) (−Cys), unless otherwise indicated, on day 0, and on day 27. For recipients of Freund's adjuvants, mice were primed with peptide emulsified in CFA, and boosted with IFA. MPL™ SE was provided as an emulsion containing 2% squalene oil and 50 μg MPL™ per dose. SE is an oil-in-water emulsion vehicle consisting of squalene, glycerol, and an emulsifying agent. Recombinant murine IL-12 was delivered at 50 ng/mouse. Recombinant murine GM-CSF was delivered at 10 μg/mouse.
Reciprocal endpoint IgG subclass titers were measured from pooled serum (n=5 Balb/c) six weeks after initial immunization, two weeks after secondary immunization. Mice were immunized subcutaneously in the rump with 25 μg of peptide, unless otherwise indicated. For recipients of Freund's adjuvants, mice were primed with peptide emulsified in complete Freund's adjuvant, and boosted with incomplete Freund's adjuvant on weeks four and six. MPL™ SE was provided as an emulsion containing 2% squalene oil and 50 μg MPL™ per dose. SE is an oil-in-water emulsion vehicle consisting of squalene, glycerol, and an emulsifying agent. Recombinant murine IL-12 was delivered at 50 ng/mouse. Recombinant murine GM-CSF was delivered at 10 μg/mouse.
Mice were immunized subcutaneously in the rump, in a total volume of 0.2 ml equally divided on each side of the tail. Immunizations were administered on days 0 and 21 with 25 μg of the HIV peptide, together with the indicated amount of adjuvant(s).
Reciprocal anti-peptide IgG endpoint titers were measured from either geometric means from individual mice (GMT) or from pooled serum (n=5 Balb/c), obtained 14 days after the second immunization. IgG1 and IgG2a subclass endpoint titers were also measured from pooled serum.

[3] = test system: Neisseria gonorrhoeae Porin B protein; assay: Reciprocal anti-Porin B protein serum IgG endpoint subclass titers; format: in vivo, Swiss-Webster mice; conditions: Experiment 11; pooled serum n=5 Swiss-Webster; 1 μg Porin B s.c. week 0 and 4
Description: (§1) Outbred Swiss-Webster mice were divided into five groups of ten mice each. Each group received 1 μg of recombinant Porin B protein (from strain FA1090 with 16 amino acids at the amino-terminus from a phage, followed by the mature form of the Porin B protein). […] Mice were immunized subcutaneously in the rump with a total volume of 0.2 ml, divided equally into each of two sites at the base of the tail/rump. Immunizations were administered at week 0 and week 4.
Mice were bled the day prior to each immunization, and at 13 days after the final immunization. Serum was analyzed from pools from mice within groups. […] All day 0 pre-immunization titers were less than 50.
Individual week 6 IgG titer geometric means against the recombinant Porin B protein were also determined.
as §1, with “six” for “five”, “five” for “ten”, “ml.” for “ml, divided equally into each of two sites at the base of the tail/rump.”
Mice were bled the day prior to each immunization, and at 13 days after the final immunization. Serum was analyzed from pools from mice within groups. […] All day 0 pre-immunization titers were less than 50. The starting dilution for vaginal lavage analysis was 1/5.

[4] = Experiment 2, 96 hours culture, after subtraction of lysozyme value, bd = below limit of detection
[5] = Experiment 1, pooled lavage, 5 Balb/c, immunized days 0, 28, 42, 2 weeks after final immunization
[6] = Experiment 2, pooled, n=5 Balb/c, 15 days after secondary immunization
[7] = Experiment 4, Balb/c, day 41, 13 days after secondary immunization
[8] = Experiment 1, pooled serum n=5 Balb/c, 25 μg peptide s.c. day 0 and 27
[9] = Experiment 1, pooled serum n=5 Balb/c, six weeks after initial, two weeks after secondary immunization, 25 μg peptide
[10] = Experiment 2, pooled serum n=5 Balb/c, 14 days after second immunization
[11] = Experiment 4, individual Balb/c mouse, day 41, 13 days after secondary immunization (days 0 and 28)
[12] = Experiment 4, pooled serum n=5 Balb/c, day 41, 13 days after secondary immunization

B1: rIL-12: Recombinantly expressed murine IL-12 (Genetics Institute) (protein, UniProt P43431 23-215; P43432 23-335, looked up)
Interleukin-12 subunit alpha: RVIPVSGPARCLSQSRNLLKTTDDMVKTAREKLKHYSCTAEDIDHEDITRDQTSTLKTCLPLELHKNESCLATRETSSTTRGSCLPPQKTSLMMTLCLGSIYEDLKMYQTEFQAINAALQNHNHQQIILDKGMLVAIDELMQSLNHNGETLRQKPPVGEADPYRVKMKLCILLHAFSTRVVTINRVMGYLSSA
Interleukin-12 subunit beta: MWELEKDVYVVEVDWTPDAPGETVNLTCDTPEEDDITWTSDQRHGVIGSGKTLTITVKEFLDAGQYTCHKGGETLSHSHLLLHKKENGIWSTEILKNFKNKTFLKCEAPNYSGRFTCSWLVQRNMDLKFNIKSSSSSPDSRAVTCGMASLSAEKVTLDQRDYEKYSVSCQEDVTCPTAEETLPIELALEARQQNKYENYSTSFFIRDIIKPDPPKNLQMKPLKNSQVEVSWEYPDSWSTPHSYFSLKFFVRIQRKKEKMKETEEGCNQKGAFLVEKTSTEVQCKGGNVCVQAQDRYYNSSCSKWACVPCRVRS
Secretion of Interferon-gamma, Con A 1 μg/ml (spleen cells; Six Day Cultures): 8.4 picograms/ml
Secretion of Interferon-gamma, Con A 1 μg/ml (spleen cells; Three Day Cultures, detection limit 4 picograms/ml): 5.9 picograms/ml
Secretion of Interferon-gamma, Con A 5 μg/ml (spleen cells; Experiment 2, 96 hours culture, after subtraction of lysozyme value): 179 units/ml
Secretion of Interferon-gamma, HIV Peptide 1.1 μg/ml (spleen cells; [4]): 41 units/ml
Secretion of Interferon-gamma, HIV Peptide 3.3 μg/ml (spleen cells; [4]): 2 units/ml
Secretion of Interferon-gamma, HIV Peptide 10 μg/ml (spleen cells; [4]): 4 units/ml
Vaginal lavage IgA anti-T1SP10MN(A) (−Cys) antibody titer (T1SP10MN(A) (−Cys) [1]; [5]): <20
Vaginal lavage IgG anti-T1SP10MN(A) (−Cys) antibody titer (T1SP10MN(A) (−Cys) [1]; [5]): <20
Vaginal lavage reciprocal anti-T1SP10MN(A) (−Cys) IgA endpoint titer (T1SP10MN(A) (−Cys) [1]; [6]): <10
Vaginal lavage reciprocal anti-T1SP10MN(A) (−Cys) IgG endpoint titer (T1SP10MN(A) (−Cys) [1]; [6]): <10
Vaginal lavage IgA anti-T1SP10MN(A) (−Cys) antibody titer (T1SP10MN(A) (−Cys) [1]; [7]): <10
Vaginal lavage IgG anti-T1SP10MN(A) (−Cys) antibody titer (T1SP10MN(A) (−Cys) [1]; [7]): <10
Reciprocal anti-T1SP10MN(A) (-Cys) IgG endpoint titer, WEEK 4 (T1SP10MN(A) (−Cys) [2]; [8]): <100
Reciprocal anti-T1SP10MN(A) (-Cys) IgG endpoint titer, WEEK 6 (T1SP10MN(A) (−Cys) [2]; [8]): <100
Reciprocal anti-T1SP10MN(A) (-Cys) IgG endpoint titer, WEEK 8 (T1SP10MN(A) (−Cys) [2]; [8]): <100
Reciprocal anti-T1SP10MN(A) (-Cys) IgG1 endpoint titer (T1SP10MN(A) (−Cys) [2]; [9]): <100
Reciprocal anti-T1SP10MN(A) (-Cys) IgG2a endpoint titer (T1SP10MN(A) (−Cys) [2]; [9]): <100
Reciprocal anti-T1SP10MN(A) (-Cys) IgG2b endpoint titer (T1SP10MN(A) (−Cys) [2]; [9]): <100
Reciprocal anti-T1SP10MN(A) (−Cys) IgG (GMT) endpoint titer (T1SP10MN(A) (−Cys) [2]; Experiment 2, geometric mean of individual Balb/c mice, 14 days after second immunization): 500
Reciprocal anti-T1SP10MN(A) (−Cys) IgG1 (pool) endpoint titer (T1SP10MN(A) (−Cys) [2]; [10]): <1000
Reciprocal anti-T1SP10MN(A) (−Cys) IgG2a (pool) endpoint titer (T1SP10MN(A) (−Cys) [2]; [10]): <1000
Reciprocal anti-T1SP10MN(A) (−Cys) IgG (pool) endpoint titer (T1SP10MN(A) (−Cys) [2]; Experiment 2, pooled serum n=5 Balb/c, immunized days 0 and 21, 14 days after second immunization): <1000
IgG serum titer specific for T1SP10MN(A) (−Cys), Mouse #1 (T1SP10MN(A) (−Cys) [2]; [11]): 594
IgG serum titer specific for T1SP10MN(A) (−Cys), Mouse #2 (T1SP10MN(A) (−Cys) [2]; [11]): 50
IgG serum titer specific for T1SP10MN(A) (−Cys), Mouse #3 (T1SP10MN(A) (−Cys) [2]; [11]): 50
IgG serum titer specific for T1SP10MN(A) (−Cys), Mouse #4 (T1SP10MN(A) (−Cys) [2]; [11]): 50
IgG serum titer specific for T1SP10MN(A) (−Cys), Mouse #5 (T1SP10MN(A) (−Cys) [2]; [11]): 50
Geometric Mean IgG serum titer specific for T1SP10MN(A) (−Cys), GMT (T1SP10MN(A) (−Cys) [2]; Experiment 4, n=5 Balb/c, day 41, 13 days after secondary immunization): 82
Reciprocal anti-T1SP10MN(A) (−Cys) IgG1 endpoint titer (T1SP10MN(A) (−Cys) [2]; [12]): <100
Reciprocal anti-T1SP10MN(A) (−Cys) IgG2a endpoint titer (T1SP10MN(A) (−Cys) [2]; [12]): <100
Reciprocal anti-T1SP10MN(A) (−Cys) IgG2b endpoint titer (T1SP10MN(A) (−Cys) [2]; [12]): <100
Reciprocal anti-Porin B Protein IgG1 endpoint titer, Week 3 [3]: 2,578
Reciprocal anti-Porin B Protein IgG1 endpoint titer, Week 6 [3]: 6,278
Reciprocal anti-Porin B Protein IgG2a endpoint titer, Week 3 [3]: 2,071
Reciprocal anti-Porin B Protein IgG2a endpoint titer, Week 6 [3]: 58,552
Reciprocal anti-Porin B Protein IgG endpoint titer, Week 3 [3]: 7,266
Reciprocal anti-Porin B Protein IgG endpoint titer, Week 6 [3]: 571,325

— patent publication US7611721B1, “Adjuvant combination formulations” (priority 2000, dated 2009)
